US20210101998A1 (Pfizer, published 2021)

T1: rabTFPI K1K2 (rabbit, limits assumed)
T1 construct: also called Rabbit TFPI K1K2; rabbit TFPI
T1 chain: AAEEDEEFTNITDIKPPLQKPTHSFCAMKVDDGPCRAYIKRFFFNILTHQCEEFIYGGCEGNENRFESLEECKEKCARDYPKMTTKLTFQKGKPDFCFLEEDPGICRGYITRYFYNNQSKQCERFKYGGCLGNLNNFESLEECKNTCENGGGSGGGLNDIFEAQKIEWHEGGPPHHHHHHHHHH


What was measured:
humTFPI K1K2 [1] = target: T2, humTFPI K1K2 (human); experiment: SPR, antibody ligand, TFPI analyte
T2 construct: Biotinylated on the AviTag for ELISA; also called Human TFPIα K1K2; humTFPI K1K2-aviHis10
Description: The flow cells were activated by injecting a 1:1 mixture of 400 mM 1-Ethyl-3-(3-dimethylaminopropyl) carbodiimide hydrochloride (EDC) and N-hydroxysuccinimide (NHS) for 7 minutes at a flow rate of 10 μl/minute. Anti-human IgG antibody was diluted to 25 μg/ml in 10 mM Sodium Acetate pH 5.0 and injected over all flow cells for 7 minutes at 10 ul/minute. All flow cells were blocked with 1 M Ethanolamine-HCL (ETH) for 7 minutes at 10 μl/minute. Final immobilization level of the capture antibody was approximately 10,000 resonance units (RU). The running buffer for immobilization and kinetics was 10 mM HEPES pH 7.4, 150 mM NaCl, 3 mM EDTA, 0.05% (v/v) Tween-20 (HBS-EP+). […] Flow cell 1 was used as a reference surface. […] At the end of each cycle, the entire anti-IgG surface was regenerated by a 60 second pulse of 3 M MgCl2. Kinetic assays were conducted at 25° C. at a collection rate of 10 Hz on a BIAcore T200 instrument (GE Healthcare). Rate constants and affinities were determined by fitting the data to a 1:1 model in BIAcore T200 Evaluation software version 1.0 (GE).

humTFPI K1K2 [2] = target: T2, humTFPI K1K2; experiment: ELISA, biotinylated TFPI on streptavidin plate
rabTFPI K1K2 = target: T1, rabTFPI K1K2; experiment: ELISA, biotinylated TFPI on streptavidin plate

Binder	Kd (humTFPI K1K2 [1])	koff (humTFPI K1K2 [1])	kon (humTFPI K1K2 [1])	EC50 (humTFPI K1K2 [2])	EC50 (rabTFPI K1K2)
4D8-Vk1.0 × VH1.0 (antibody, human IgG1, kappa, V domains shown, Humanized 4D8 variant) VH: EVQLVESGGGLVQPGGSLRLSCAASGYTFTDYNLDWVRQAPGKGLEWVADINPINGATLYNQKFKGRFTISRDNAKNSLYLQMNSLRAEDTAVYYCARYYGDYDAMDYWGQGTLVTVSS VL: DIQMTQSPSSLSASVGDRVTITCKASQDVHTAVAWYQQKPGKAPKLLIYWASTRHTGVPSRFSGSGSGTDFTLTISSLQPEDFATYYCQQHYTTPYTFGQGTKLEIKR	6.94 nM	0.00047 s⁻¹	67700 M⁻¹ s⁻¹	0.0772 nM	0.0785 nM
4D8-Vk1.1 × VH1.2 (antibody, human IgG1, kappa, V domains shown, Humanized 4D8 variant) VH: EVQLVESGGGLVQPGGSLRLSCAASGYTFTDYNLDWVRQAPGKGLEWVGDINPINGATLYNQKFKGRFTISRDNAKNSLYLQMNSLRAEDTAVYYCARYYGDYDAMDYWGQGTLVTVSS VL: DIQMTQSPSSLSASVGDRVTITCKASQDVHTAVAWYQQKPGKAPKLLIYWASTRHTGVPSRFSGSGSGTDYTLTISSLQPEDFATYYCQQHYTTPYTFGQGTKLEIKR	0.627 nM	9.49e-05 s⁻¹	151000 M⁻¹ s⁻¹	0.059 nM	0.0783 nM
4D8-Vk1.0 × VH1.3 (antibody, human IgG1, kappa, V domains shown, Humanized 4D8 variant) VH: EVQLVESGGGLVQPGGSLRLSCAASGYTFTDYNLDWVRQAPGKGLEWVADINPINGATLYNQKFKGRATISRDNAKNSLYLQMNSLRAEDTAVYYCARYYGDYDAMDYWGQGTLVTVSS VL: DIQMTQSPSSLSASVGDRVTITCKASQDVHTAVAWYQQKPGKAPKLLIYWASTRHTGVPSRFSGSGSGTDFTLTISSLQPEDFATYYCQQHYTTPYTFGQGTKLEIKR	7.19 nM	0.000571 s⁻¹	79500 M⁻¹ s⁻¹	0.0822 nM	0.0556 nM
4D8-Vk1.1 × VH1.1 (antibody, human IgG1, kappa, V domains shown, Humanized 4D8 variant) VH: EVQLVESGGGLVQPGGSLRLSCAASGYTFTDYNLDWVRQAPGKGLEWVGDINPINGATLYNQKFKGRATISVDQAKNSAYLQMNSLRAEDTAVYYCARYYGDYDAMDYWGQGTLVTVSS VL: DIQMTQSPSSLSASVGDRVTITCKASQDVHTAVAWYQQKPGKAPKLLIYWASTRHTGVPSRFSGSGSGTDYTLTISSLQPEDFATYYCQQHYTTPYTFGQGTKLEIKR	0.832 nM	0.000161 s⁻¹	193000 M⁻¹ s⁻¹	0.0818 nM	0.0788 nM
4D8-Vk1.1 × VH1.0 (antibody, human IgG1, kappa, V domains shown, Humanized 4D8 variant) VH: EVQLVESGGGLVQPGGSLRLSCAASGYTFTDYNLDWVRQAPGKGLEWVADINPINGATLYNQKFKGRFTISRDNAKNSLYLQMNSLRAEDTAVYYCARYYGDYDAMDYWGQGTLVTVSS VL: DIQMTQSPSSLSASVGDRVTITCKASQDVHTAVAWYQQKPGKAPKLLIYWASTRHTGVPSRFSGSGSGTDYTLTISSLQPEDFATYYCQQHYTTPYTFGQGTKLEIKR				0.0429 nM	0.0451 nM
4D8-Vk1.0 × VH1.1 (antibody, human IgG1, kappa, V domains shown, Humanized 4D8 variant) VH: EVQLVESGGGLVQPGGSLRLSCAASGYTFTDYNLDWVRQAPGKGLEWVGDINPINGATLYNQKFKGRATISVDQAKNSAYLQMNSLRAEDTAVYYCARYYGDYDAMDYWGQGTLVTVSS VL: DIQMTQSPSSLSASVGDRVTITCKASQDVHTAVAWYQQKPGKAPKLLIYWASTRHTGVPSRFSGSGSGTDFTLTISSLQPEDFATYYCQQHYTTPYTFGQGTKLEIKR	25.4 nM	0.00154 s⁻¹	60600 M⁻¹ s⁻¹	0.0884 nM	0.0705 nM
4D8-Vk1.0 × VH1.2 (antibody, human IgG1, kappa, V domains shown, Humanized 4D8 variant) VH: EVQLVESGGGLVQPGGSLRLSCAASGYTFTDYNLDWVRQAPGKGLEWVGDINPINGATLYNQKFKGRFTISRDNAKNSLYLQMNSLRAEDTAVYYCARYYGDYDAMDYWGQGTLVTVSS VL: DIQMTQSPSSLSASVGDRVTITCKASQDVHTAVAWYQQKPGKAPKLLIYWASTRHTGVPSRFSGSGSGTDFTLTISSLQPEDFATYYCQQHYTTPYTFGQGTKLEIKR	0.695 nM	0.000165 s⁻¹	238000 M⁻¹ s⁻¹	0.0758 nM	0.0422 nM
